Target: T1, phiC31 integrase (Streptomyces phage phiC31) (UniProt Q9T221)
T1 sequence: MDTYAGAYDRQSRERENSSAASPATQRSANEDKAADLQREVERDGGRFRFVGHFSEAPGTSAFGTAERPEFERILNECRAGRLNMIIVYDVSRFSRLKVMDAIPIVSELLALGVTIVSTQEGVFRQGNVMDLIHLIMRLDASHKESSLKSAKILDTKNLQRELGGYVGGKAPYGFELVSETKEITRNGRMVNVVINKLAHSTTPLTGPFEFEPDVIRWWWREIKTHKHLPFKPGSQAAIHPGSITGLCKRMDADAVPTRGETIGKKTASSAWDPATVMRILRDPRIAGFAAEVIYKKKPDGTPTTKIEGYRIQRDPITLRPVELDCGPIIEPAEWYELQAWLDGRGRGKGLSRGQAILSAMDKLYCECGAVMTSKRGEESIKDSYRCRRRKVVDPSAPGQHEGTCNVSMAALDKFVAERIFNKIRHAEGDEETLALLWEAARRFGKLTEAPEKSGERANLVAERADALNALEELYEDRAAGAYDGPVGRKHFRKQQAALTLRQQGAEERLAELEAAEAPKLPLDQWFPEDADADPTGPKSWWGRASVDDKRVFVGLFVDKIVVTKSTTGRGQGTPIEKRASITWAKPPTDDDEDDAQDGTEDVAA
Assay: cell_activity

Row | Substance | activity (Ura+ transformants per 10^7 cells) (S. pombe FY527attPx2, circular pLT50 plus pLT43, 63 without integrase) | activity (Ura+ transformants per 10^7 cells) (S. pombe FY527attPx2, linear attB-ura4-attB plus pLT43, 19 without integrase)
1 | phiC31 attB (500 bp BamHI-XbaI fragment of pHS21) | 2560 | 
2 | phiC31 attP 84 bp (ApaI-SacI fragment of pHS282) |  | 1570

Source: patent US20050009182
